{"source": "patent US20040229298A1", "key": {"[1]": {"biological_target": "GST-DLG2 PDZ domain 3 (human)", "assay": "G assay ELISA, E6 PL peptide titrated on constant GST-PDZ"}, "[2]": {"biological_target": "GST-PSD95 PDZ domains 1-3 (human), P78352", "assay": "G assay ELISA, E6 PL peptide titrated on constant GST-PDZ"}, "[3]": {"biological_target": "GST-SAST1 PDZ domain (human), Q9Y2H9", "sequence (Q9Y2H9 other isoform, or with tags, fused parts or gaps limits assumed)": "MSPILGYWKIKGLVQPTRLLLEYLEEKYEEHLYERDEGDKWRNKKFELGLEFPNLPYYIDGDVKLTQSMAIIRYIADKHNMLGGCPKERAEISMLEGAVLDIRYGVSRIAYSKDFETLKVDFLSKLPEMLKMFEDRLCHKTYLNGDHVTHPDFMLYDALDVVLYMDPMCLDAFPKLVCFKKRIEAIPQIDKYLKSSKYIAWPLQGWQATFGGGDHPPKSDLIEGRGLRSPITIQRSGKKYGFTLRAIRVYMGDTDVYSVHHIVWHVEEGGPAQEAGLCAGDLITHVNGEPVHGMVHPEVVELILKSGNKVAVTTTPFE", "assay": "G assay ELISA, E6 PL peptide titrated on constant GST-PDZ"}, "[4]": {"biological_target": "GST-TIP1 PDZ domain (human)", "assay": "G assay ELISA, E6 PL peptide titrated on constant GST-PDZ"}, "[5]": {"biological_target": "GST-DLG3 PDZ domains 1-2 (human), Q92796", "sequence (Q92796 other isoform, or with tags, fused parts or gaps limits assumed)": "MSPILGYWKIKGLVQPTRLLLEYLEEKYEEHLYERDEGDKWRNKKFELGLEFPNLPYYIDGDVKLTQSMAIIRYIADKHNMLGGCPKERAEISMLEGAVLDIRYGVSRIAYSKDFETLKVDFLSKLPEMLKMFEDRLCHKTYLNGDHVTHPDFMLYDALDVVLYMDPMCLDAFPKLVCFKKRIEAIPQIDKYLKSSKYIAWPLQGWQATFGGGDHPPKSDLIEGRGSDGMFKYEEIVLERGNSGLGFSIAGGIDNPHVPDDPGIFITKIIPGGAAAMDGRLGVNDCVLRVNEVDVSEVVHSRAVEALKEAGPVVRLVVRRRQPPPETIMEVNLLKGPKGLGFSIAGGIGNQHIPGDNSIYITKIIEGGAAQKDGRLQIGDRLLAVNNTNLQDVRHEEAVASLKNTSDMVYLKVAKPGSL", "assay": "G assay ELISA, E6 PL peptide titrated on constant GST-PDZ"}, "[6]": {"biological_target": "GST-SAST2 PDZ domain 1 (human)", "assay": "G assay ELISA, E6 PL peptide titrated on constant GST-PDZ"}, "[7]": {"biological_target": "GST-SIP1 PDZ domain 1 (human)", "assay": "G assay ELISA, E6 PL peptide titrated on constant GST-PDZ"}, "[8]": {"biological_target": "GST-PSD95 PDZ domain 2 (human)", "assay": "G assay ELISA, E6 PL peptide titrated on constant GST-PDZ"}, "[9]": {"biological_target": "GST-X-11 beta PDZ domain 1 (human)", "assay": "G assay ELISA, 10 uM biotin peptide on anti-GST-captured GST-PDZ"}, "[10]": {"biological_target": "GST-KIAA0545 PDZ domain 1 (human)", "assay": "G assay ELISA, 10 uM biotin peptide on anti-GST-captured GST-PDZ"}, "[11]": {"biological_target": "GST-PAR3 PDZ domain 3, clone #182.1 (human)", "assay": "G assay ELISA, 10 uM biotin peptide on anti-GST-captured GST-PDZ"}, "[12]": {"biological_target": "GST-Shroom PDZ domain 1 (human)", "assay": "G assay ELISA, 10 uM biotin peptide on anti-GST-captured GST-PDZ"}, "[13]": {"biological_target": "GST-Serine Protease PDZ domain 1 (human)", "assay": "G assay ELISA, 10 uM biotin peptide on anti-GST-captured GST-PDZ"}, "[14]": {"biological_target": "GST-ZO-1 PDZ domain 1 (human)", "assay": "G assay ELISA, 10 uM biotin peptide on anti-GST-captured GST-PDZ"}, "[15]": {"biological_target": "GST-X-11 beta PDZ domain 2 (human)", "assay": "G assay ELISA, 10 uM biotin peptide on anti-GST-captured GST-PDZ"}, "[16]": {"biological_target": "GST-KIAA1719 PDZ domain 3 (human)", "assay": "G assay ELISA, 10 uM biotin peptide on anti-GST-captured GST-PDZ"}, "[17]": {"biological_target": "GST-MAGI 1 PDZ domain 3 (human)", "assay": "G assay ELISA, 10 uM biotin peptide on anti-GST-captured GST-PDZ"}, "[18]": {"biological_target": "GST-ZO-2 PDZ domain 2 (human)", "assay": "G assay ELISA, 10 uM biotin peptide on anti-GST-captured GST-PDZ"}, "[19]": {"biological_target": "GST-EBP50 PDZ domain 1, clone #311.1 (human)", "assay": "G assay ELISA, 10 uM biotin peptide on anti-GST-captured GST-PDZ"}, "[20]": {"biological_target": "GST-GTPase PDZ domain 1 (human)", "assay": "G assay ELISA, 10 uM biotin peptide on anti-GST-captured GST-PDZ"}, "[21]": {"biological_target": "GST-FLJ00011 PDZ domain 1 (human)", "assay": "G assay ELISA, 10 uM biotin peptide on anti-GST-captured GST-PDZ"}, "[22]": {"biological_target": "GST-INADL PDZ domain 4 (human)", "assay": "G assay ELISA, 10 uM biotin peptide on anti-GST-captured GST-PDZ"}, "[23]": {"biological_target": "GST-NeDLG PDZ domain 2 (human)", "assay": "G assay ELISA, 10 uM biotin peptide on anti-GST-captured GST-PDZ"}, "[24]": {"biological_target": "GST-MUPP1 PDZ domain 13 (human)", "assay": "G assay ELISA, 10 uM biotin peptide on anti-GST-captured GST-PDZ"}, "[25]": {"biological_target": "GST-HTRA 3 PDZ domain 1 (human)", "assay": "G assay ELISA, 10 uM biotin peptide on anti-GST-captured GST-PDZ"}, "[26]": {"biological_target": "GST-DLG1 PDZ domain 3 (human)", "assay": "G assay ELISA, 10 uM biotin peptide on anti-GST-captured GST-PDZ"}, "[27]": {"biological_target": "GST-APXL1 PDZ domain 1 (human)", "assay": "G assay ELISA, 10 uM biotin peptide on anti-GST-captured GST-PDZ"}, "[28]": {"biological_target": "GST-Numb BP PDZ domain 1 (human)", "assay": "G assay ELISA, 10 uM biotin peptide on anti-GST-captured GST-PDZ"}, "[29]": {"biological_target": "GST-KIAA0147 PDZ domain 4 (human)", "assay": "G assay ELISA, 10 uM biotin peptide on anti-GST-captured GST-PDZ"}}, "note": "“And” between values parts separate entries of the source, which are not always exact repeats. Equal entries are not always repeated. Ends that are not written are not given here.", "data": [{"binder": "WTGRCMSCCRSSRTRRETQL (not fully specified; cysteine pairing not given here)", "note": "[HPV16 E6 C-terminal PDZ ligand peptide (20 mer, biotinylated), P03126 139-158]", "values": [{"measurement": "EC50", "setting": "[1]", "value": 1600, "unit": "nM"}, {"measurement": "EC50", "setting": "[2]", "value": 1000, "unit": "nM"}, {"measurement": "EC50", "setting": "[3]", "value": 580, "unit": "nM"}, {"measurement": "EC50", "setting": "[4]", "value": 750, "unit": "nM"}, {"measurement": "EC50", "setting": "[5]", "value": 3.8, "unit": "µM"}, {"measurement": "EC50", "setting": "[6]", "value": 1200, "unit": "nM"}, {"measurement": "EC50", "setting": "[7]", "value": 7.5, "unit": "µM"}, {"measurement": "EC50", "setting": "[8]", "value": 6.8, "unit": "µM"}, {"measurement": "Ave OD", "setting": "[9]", "value": 0.352, "unit": "A450 nm"}, {"measurement": "OD S/N (ratio to GST only well)", "setting": "[9]", "value": 2.02}, {"measurement": "Ave OD", "setting": "[10]", "value": 0.44, "unit": "A450 nm"}, {"measurement": "OD S/N (ratio to GST only well)", "setting": "[10]", "value": 3.96}, {"measurement": "Ave OD", "setting": "[11]", "value": 0.445, "unit": "A450 nm"}, {"measurement": "OD S/N (ratio to GST only well)", "setting": "[11]", "value": 2.07}, {"measurement": "Ave OD", "setting": "[12]", "value": 0.361, "unit": "A450 nm"}, {"measurement": "OD S/N (ratio to GST only well)", "setting": "[12]", "value": 3.25}, {"measurement": "Ave OD", "setting": "[13]", "value": 0.343, "unit": "A450 nm"}, {"measurement": "OD S/N (ratio to GST only well)", "setting": "[13]", "value": 1.55}, {"measurement": "Ave OD", "setting": "[14]", "value": 0.412, "unit": "A450 nm"}, {"measurement": "OD S/N (ratio to GST only well)", "setting": "[14]", "value": 1.83}, {"measurement": "Ave OD", "setting": "[15]", "value": "0.431 A450 nm and 0.426 A450 nm"}, {"measurement": "OD S/N (ratio to GST only well)", "setting": "[15]", "value": "2.95 and 1.78"}, {"measurement": "Ave OD", "setting": "[16]", "value": 0.346, "unit": "A450 nm"}, {"measurement": "OD S/N (ratio to GST only well)", "setting": "[16]", "value": 1.65}, {"measurement": "Ave OD", "setting": "[17]", "value": 0.354, "unit": "A450 nm"}, {"measurement": "OD S/N (ratio to GST only well)", "setting": "[17]", "value": 1.46}, {"measurement": "Ave OD", "setting": "[18]", "value": 0.356, "unit": "A450 nm"}, {"measurement": "OD S/N (ratio to GST only well)", "setting": "[18]", "value": 2.15}, {"measurement": "Ave OD", "setting": "[19]", "value": 0.432, "unit": "A450 nm"}, {"measurement": "OD S/N (ratio to GST only well)", "setting": "[19]", "value": 2.05}, {"measurement": "Ave OD", "setting": "[20]", "value": 0.35, "unit": "A450 nm"}, {"measurement": "OD S/N (ratio to GST only well)", "setting": "[20]", "value": 1.12}, {"measurement": "Ave OD", "setting": "[21]", "value": 0.423, "unit": "A450 nm"}, {"measurement": "OD S/N (ratio to GST only well)", "setting": "[21]", "value": 2.9}, {"measurement": "Ave OD", "setting": "[22]", "value": 0.357, "unit": "A450 nm"}, {"measurement": "OD S/N (ratio to GST only well)", "setting": "[22]", "value": 2.15}, {"measurement": "Ave OD", "setting": "[23]", "value": 0.425, "unit": "A450 nm"}, {"measurement": "OD S/N (ratio to GST only well)", "setting": "[23]", "value": 2.2}, {"measurement": "Ave OD", "setting": "[24]", "value": "0.435 A450 nm and 0.411 A450 nm"}, {"measurement": "OD S/N (ratio to GST only well)", "setting": "[24]", "value": "1.56 and 1.75"}, {"measurement": "Ave OD", "setting": "[25]", "value": 0.413, "unit": "A450 nm"}, {"measurement": "OD S/N (ratio to GST only well)", "setting": "[25]", "value": 1.34}, {"measurement": "Ave OD", "setting": "[26]", "value": 0.398, "unit": "A450 nm"}, {"measurement": "OD S/N (ratio to GST only well)", "setting": "[26]", "value": 2.45}, {"measurement": "Ave OD", "setting": "[27]", "value": 0.461, "unit": "A450 nm"}, {"measurement": "OD S/N (ratio to GST only well)", "setting": "[27]", "value": 3.14}, {"measurement": "Ave OD", "setting": "[28]", "value": 0.352, "unit": "A450 nm"}, {"measurement": "OD S/N (ratio to GST only well)", "setting": "[28]", "value": 3.17}, {"measurement": "Ave OD", "setting": "[29]", "value": 0.38, "unit": "A450 nm"}, {"measurement": "OD S/N (ratio to GST only well)", "setting": "[29]", "value": 2.34}]}]}
